Laboratory results from article PMC7610968 (Molecular cell, 2007).

Biological target: T1, szz-tagged mutant Rrp44-cat protein (S. cerevisiae, UniProt Q08162 1-1001, D551N)
T1 sequence (looked up): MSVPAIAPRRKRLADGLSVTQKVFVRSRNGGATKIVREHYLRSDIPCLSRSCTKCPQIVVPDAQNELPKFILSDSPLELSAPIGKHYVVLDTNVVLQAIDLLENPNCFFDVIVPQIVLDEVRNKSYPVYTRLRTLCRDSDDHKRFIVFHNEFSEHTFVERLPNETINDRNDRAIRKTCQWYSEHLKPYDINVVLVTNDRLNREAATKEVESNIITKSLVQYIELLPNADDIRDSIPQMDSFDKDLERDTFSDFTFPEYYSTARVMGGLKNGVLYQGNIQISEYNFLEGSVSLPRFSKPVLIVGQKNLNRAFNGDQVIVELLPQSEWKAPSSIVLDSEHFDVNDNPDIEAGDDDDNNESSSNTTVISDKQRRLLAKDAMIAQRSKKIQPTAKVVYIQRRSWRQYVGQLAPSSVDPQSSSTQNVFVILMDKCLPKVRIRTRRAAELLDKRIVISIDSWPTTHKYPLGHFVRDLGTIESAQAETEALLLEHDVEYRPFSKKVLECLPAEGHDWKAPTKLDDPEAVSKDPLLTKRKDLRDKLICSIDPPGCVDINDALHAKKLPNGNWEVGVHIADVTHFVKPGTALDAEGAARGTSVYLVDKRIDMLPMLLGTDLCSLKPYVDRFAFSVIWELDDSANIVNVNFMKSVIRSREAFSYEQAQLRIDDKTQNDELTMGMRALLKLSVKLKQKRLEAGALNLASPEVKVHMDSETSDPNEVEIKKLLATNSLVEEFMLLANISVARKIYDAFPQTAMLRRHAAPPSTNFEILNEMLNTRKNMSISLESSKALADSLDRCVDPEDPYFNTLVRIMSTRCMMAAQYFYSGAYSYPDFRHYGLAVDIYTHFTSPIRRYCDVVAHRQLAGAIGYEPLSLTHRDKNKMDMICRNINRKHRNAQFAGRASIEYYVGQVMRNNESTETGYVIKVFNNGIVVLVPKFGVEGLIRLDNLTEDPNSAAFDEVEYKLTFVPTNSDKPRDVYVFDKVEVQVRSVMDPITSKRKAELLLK
Experiment: co-IP

fold recovered against wild-type Rrp44-szz: ~2 fold
B1: Rrp6 (natural protein, UniProt Q12149 1-733, looked up)
chain: MTSENPDVLLSRVINVVRAASSLASQDVDFYKNLDRGFSKDLKSKADKLADMANEIILSIDEHHESFELKEEDISDLWNNFGNIMDNLLEMSDHSLDKLNCAINSKSRGSDLQYLGEFSGKNFSPTKRVEKPQLKFKSPIDNSESHPFIPLLKEKPNALKPLSESLRLVDDDENNPSHYPHPYEYEIDHQEYSPEILQIREEIPSKSWDDSVPIWVDTSTELESMLEDLKNTKEIAVDLEHHDYRSYYGIVCLMQISTRERDYLVDTLKLRENLHILNEVFTNPSIVKVFHGAFMDIIWLQRDLGLYVVGLFDTYHASKAIGLPRHSLAYLLENFANFKTSKKYQLADWRIRPLSKPMTAYARADTHFLLNIYDQLRNKLIESNKLAGVLYESRNVAKRRFEYSKYRPLTPSSEVYSPIEKESPWKILMYQYNIPPEREVLVRELYQWRDLIARRDDESPRFVMPNQLLAALVAYTPTDVIGVVSLTNGVTEHVRQNAKLLANLIRDALRNIKNTNEEATPIPSSETKADGILLETISVPQIRDVMERFSVLCNSNISKSRAKPVTNSSILLGKILPREEHDIAYSKDGLPNKVKTEDIRIRAQNFKSALANLEDIIFEIEKPLVVPVKLEEIKTVDPASAPNHSPEIDNLDDLVVLKKKNIQKKQPAKEKGVTEKDAVDYSKIPNILSNKPGQNNRQQKKRRFDPSSSDSNGPRAAKKRRPAAKGKNLSFKR
